Data on 27 molecules can be found in patent US20210261671A1 (HARPOON THERAPEUTICS, published 2021).

Assay [1] addresses T1, human FLT3 protein (human, UniProt P36888 27-541, limits assumed).
T1 construct: protein coated in the screening ELISA; also called ELISA FLT3
Nature of the assay: colorimetric ELISA, periplasmic extract. An excerpt: (§1) Llamas were immunized with purified FLT3 protein expressed in Expi293 cells. A phage display library for expression of heavy variable antibody domains was constructed from circulating B cells isolated from the immunized llamas (See van der Linden, de Geus, Stok, Bos, van Wassenaar, Verrips, and Frenken. 2000. J Immunol Methods 240:185-195). Phage clones were screened for binding to FLT3 by expressing llama anti-FLT3 proteins in E. coli, preparing periplasmic extracts, and performing colorimetric ELISAs.

In assay [2] the target is T1, human FLT3 protein. Nature of the assay: colorimetric ELISA, signal over control wells lacking FLT3.
Description: as §1

B1: FLL1 (VHH)
VHH: QVQLQESGGGLVQAGGSLRLSCAASGRTFSTLTVAWFRQAPGKEREFVVASIPSGSNTGYAESVKGRFTISRDIAKNTVYLQMNSLKPEDTAMYFCAARIYFGSSRGYDYWGQGTQVTVSS
notes: llama anti-FLT3 variable domain; E. coli periplasmic extract
Take B1: in the assay with human FLT3 protein [1], the “ELISA FLT3 (absorbance)” value was found to be 3.4 absorbance. The FLT3/control with human FLT3 protein [2] was 11 ratio.

B2: FLL26 (VHH)
VHH: QVQLQESGGGLVQAGGSLRLSCAASGRTFTTYTVAWFRQAPGKEREFLVASIPTGSNTAYAESVKGRFTISRGNAKNTVYLQMNSLKPEDTAMYYCAARTYFGSSRGYDYWGQGTQVTVSS
notes: as for B1
On to B2, for which the “ELISA FLT3 (absorbance)” value with human FLT3 protein [1] amounted to 2.9 absorbance. In the assay with human FLT3 protein [2], this molecule registered an FLT3/control of 4 ratio.

B3: FLL178 (VHH)
VHH: QVQLQESGGGLVQPGGSLRLSCAASGFTFSDYAMSWVRQAPGKGLEWVSGISSGGYKIGYTDSTKGRFTISRDNAKNTLYLQMNSLTAEDTAVYYCAKGTQWSWSLRDNTSRGQGTQVTVSS
notes: as for B1
Consider B3, for which the “ELISA FLT3 (absorbance)” value with human FLT3 protein [1] stood at 4 absorbance. In the assay with human FLT3 protein [2], the FLT3/control worked out at 48 ratio.

B4: FLL27 (VHH)
VHH: QVQLQESGGGLVQPGGSLRLSCKASGFTFSSYAMSWVRQAPGKGLEWVSGISSGGYKIGYTDSTKGRFTISRDNAKNTLYLQMNSLNAEDTAVYYCAKGTQWSWALRDSTSRGQGTQVTVSS
notes: as for B1
Take B4: the “ELISA FLT3 (absorbance)” value with human FLT3 protein [1] stood at 4 absorbance. For the same molecule, the FLT3/control with human FLT3 protein [2] amounted to 10 ratio.

B5: FLL116 (VHH)
VHH: QVQLQESGGGLVQAGGSLRLSCAASGVTFSINYIDWYRQAPGKQREWVAQITRDSNSFYADSVKGRFAISRDNAKNTVYLQMNSLKPEDTAVYYCRVLSYWGQGTQVTVSS
notes: as for B1
As for B5, the “ELISA FLT3 (absorbance)” value with human FLT3 protein [1] worked out at 1.1 absorbance. Moreover, the FLT3/control with human FLT3 protein [2] stood at 5 ratio.

B6: FLL187 (VHH)
VHH: QVQLQESGGGLVQPGGSLRLSCAASGVTFSINYIDWYRQAPGKQREWVAQITRDSNSFYADSVKGRFAISRENAKNTVYLQMNSLKPEDTAVYYCRVLSYWGQGTQVTVSS
notes: as for B1
Consider B6, for which the “ELISA FLT3 (absorbance)” value in the assay with human FLT3 protein [1] stood at 1.9 absorbance. The molecule also returned an FLT3/control with human FLT3 protein [2] of 18 ratio.

B7: FLL32 (VHH)
VHH: QVQLQESGGGLVQAGGSLRLSCQASGVTFNINYIDWYRQAPGRQREWVAQITRDSTRFYADSVKGRFAISRDNAKNMVYLQLNSLKPEDTAVYYCRILSYWGQGTQVTVSS
notes: as for B1
As for B7, the “ELISA FLT3 (absorbance)” value with human FLT3 protein [1] came out at 1.6 absorbance. In addition, the FLT3/control with human FLT3 protein [2] was found to be 5 ratio.

B8: FLL77 (VHH)
VHH: QVQLQESGGGLVQPGGSLRLSCAASGVTFSISYIDWYRQAPGNEREWVAQITRGGDSFYADSVKGRFAISRDNAKNTVYLQMNSLKPEDTAVYYCRILSYWGQGTQVTVSS
notes: as for B1
As for B8, the “ELISA FLT3 (absorbance)” value with human FLT3 protein [1] came out at 4 absorbance. In addition, the FLT3/control in the assay with human FLT3 protein [2] stood at 22 ratio.

B9: FLL51 (VHH)
VHH: QVQLQESGGGLVQPGGSLRLSCAASGFDFSISYIDWYRQAPGNEREWVAQITRGGDSFYADSVKGRFAISRDNAKNTVYLQMNSLKPEDTAVYYCRILSYWGQGTQVTVSS
notes: as for B1
For B9, the “ELISA FLT3 (absorbance)” value with human FLT3 protein [1] was 2.9 absorbance. In addition, the FLT3/control with human FLT3 protein [2] worked out at 16 ratio.

B10: FLL137 (VHH)
VHH: QVQLQESGGGLVQAGGSLRLSCAASGSTFNNYAMDWFRQAPGKQREWVAQITRDSSSFYADSVKGRFAISRDNAKNTVYLQMNSLKPEDTAVYYCRVLSYWGQGTQVTVSS
notes: as for B1
As to B10, the “ELISA FLT3 (absorbance)” value with human FLT3 protein [1] worked out at 1.8 absorbance. This molecule showed an FLT3/control with human FLT3 protein [2] of 8 ratio.

B11: FLL129 (VHH)
VHH: QVQLQESGGGLVQAGGSLRLSCAASGVTFSASYIDWYRQAPGNEREWVAQITRGGDSFYADSVKGRFAISRDNAKNTVYLQMNSLKPEDTAVYYCRVLSYWGQGTQVTVSS
notes: as for B1
Turning to B11, in the assay with human FLT3 protein [1], the “ELISA FLT3 (absorbance)” value turned out to be 2.6 absorbance. Further, the FLT3/control in the assay with human FLT3 protein [2] was determined as 9 ratio.

B12: FLL14 (VHH)
VHH: QVQLQESGGGLVQAGGSLRLSCAASGVTFSINYIDWYRQAPGKQREWVAQITRDSNSFYADSVKGRFAISRDNAKNTVYLQMNSLKPEDTAVYYCRLLSYWGQGTQVTVSS
notes: as for B1
Take B12: in the assay with human FLT3 protein [1], the “ELISA FLT3 (absorbance)” value is 1.8 absorbance. In the assay with human FLT3 protein [2], this molecule displayed an FLT3/control of 5 ratio.

B13: FLL101 (VHH)
VHH: QVQLQESGGGLVQAGGSLRLSCAASGVTFSINYIDWYRQAPGKQREWVAQITRDSNSFYADSVKGRFAISRDNAKNTVYLQMNNLKPEDTAVYYCRVLSYWGQGTQVTVSS
notes: as for B1
On to B13, for which the “ELISA FLT3 (absorbance)” value with human FLT3 protein [1] was found to be 1.7 absorbance. The FLT3/control with human FLT3 protein [2] is 3 ratio.

B14: FLL179 (VHH)
VHH: QVQLQESGGGLVQAGGSLRLSCKASGVTFSINYIDWYRQAPGKQREWVAQITRDGSSFYADSVKGRFAISRDNAKNTVYLQMNSLKPEDTAVYYCRILSDWGQGTQVTVSS
notes: as for B1
As to B14, the “ELISA FLT3 (absorbance)” value in the assay with human FLT3 protein [1] is 3.7 absorbance. The FLT3/control with human FLT3 protein [2] stood at 17 ratio.

B15: FLL146 (VHH)
VHH: QVQLQESGGGLVQAGGSLRLSCAASGVTFSINYIDWYRQAPGKQREWVAQITRDDTSFYADSVKGRFAISRDNAKNTVYLQMNNLRPEDTAVYYCRLLSFWGQGTQVTVSS
notes: as for B1
On to B15, for which the “ELISA FLT3 (absorbance)” value in the assay with human FLT3 protein [1] was 0.9 absorbance. In the assay with human FLT3 protein [2], this molecule gave an FLT3/control of 4 ratio.

B16: FLL103 (VHH)
VHH: QVQLQESGGGLVQAGGSLRLSCEASGPTFSINYIDWYRQAPGKQREWVAQITRDSNSFYADSVKGRFAVSRDNAKNTVYLQMNSLKPEDTAVYYCRVLSYWGQGTQVTVSS
notes: as for B1
Turning to B16, the “ELISA FLT3 (absorbance)” value with human FLT3 protein [1] was found to be 3.8 absorbance. The FLT3/control with human FLT3 protein [2] is 28 ratio.

B17: FLL97 (VHH)
VHH: QVQLQESGGGLVQAGGSLRLSCAASGVTFSINYIDWYRQAPGKQREWVAQITRDSNSFYADSVKGRFAVSRDNAKNTVYLQMNSLKPEDTAVYYCRVLSYWGQGTQVTVSS
notes: as for B1
B17: the “ELISA FLT3 (absorbance)” value in the assay with human FLT3 protein [1] came out at 1.4 absorbance. In addition, the FLT3/control with human FLT3 protein [2] amounted to 7 ratio.

B18: FLL181 (VHH)
VHH: QVQLQESGGGLVQAGDSLRLSCAASGVTFSASYIDWYRQAPGNEREWVAQITRGGDSFYADSVKGRFAISRDNAKNTVYLQMNSLKPEDTAVYYCRVLSYWGQGTQVTVSS
notes: as for B1
B18: the “ELISA FLT3 (absorbance)” value with human FLT3 protein [1] worked out at 3.2 absorbance. The molecule also yielded an FLT3/control with human FLT3 protein [2] of 5 ratio.

B19: FLL190 (VHH)
VHH: QVQLQESGGGLVQAGGSLTLSCTASGSTFSINHFSWYRQAPGKQRELVAFISSDGVSIDVESVKGRFTISGDNDKNTAYLQMNGLKPEDTAVYYCYYRGFWGQGTQVTVSS
notes: as for B1
With B19, the “ELISA FLT3 (absorbance)” value with human FLT3 protein [1] amounted to 4 absorbance. The molecule further gave an FLT3/control in the assay with human FLT3 protein [2] of 43 ratio.

B20: FLL160 (VHH)
VHH: QVQLQESGGGLVQAGDSLRLSCATSGRTFNLYRVGWFRQAPGKEREFVARITWSADITQYADSVKGRFTISRDNAKNTVYLQMNSLKPEDTAIYYCATTLRKSSGIYHVDDYDDWGQGTQVTVSS
notes: as for B1
B20: the “ELISA FLT3 (absorbance)” value in the assay with human FLT3 protein [1] turned out to be 0.7 absorbance. In the assay with human FLT3 protein [2], the FLT3/control worked out at 9 ratio.

B21: FLL173 (VHH)
VHH: QVQLQESGGGLVQAGGSLRLSCATSGRTFNLYRVGWFRQAPGKEREFVARITWSADITQYTDSVKGRFTISRDNAKNTVYLQMNSLKPEDTAIYYCATTLRKSSGIYHTDDYDYWGQGTQVTVSS
notes: as for B1
As for B21, the “ELISA FLT3 (absorbance)” value with human FLT3 protein [1] was 0.5 absorbance. Further, in the assay with human FLT3 protein [2], the FLT3/control came to 6 ratio.

B22: FLL107 (VHH)
VHH: QVQLQESGGGLVQAGGSLRLSCAASGRTFSSYAMGWFRQAPGKEREFVAAISWSGSNTYYADSVKGRFTISRDNAKNTVYLQMDSLKPEDTAVYYCAAGGSTRVVVTTTPVVKYWGQGTQVTVSS
notes: as for B1
Take B22: the “ELISA FLT3 (absorbance)” value with human FLT3 protein [1] came to 3.8 absorbance. Moreover, the FLT3/control in the assay with human FLT3 protein [2] came out at 11 ratio.

B23: FLL141 (VHH)
VHH: QVQLQESGGGLVQAGGSLRLSCAASGRTFSSYAMGWFRQAPGMEREFVAAISWSGYSTYYADSVKGRFTISRDDAKNTVYLQMDSLKPEDTAVYYCAAGGSTRVVVTTTPVVKYWGQGTQVTVSS
notes: as for B1
B23: the “ELISA FLT3 (absorbance)” value in the assay with human FLT3 protein [1] was 4 absorbance. Also, the FLT3/control in the assay with human FLT3 protein [2] worked out at 28 ratio.

B24: FLL78 (VHH)
VHH: QVQLQESGGGWVQAGGSLRLSCAASGRTFSSYAMGWFRQAPGKEREFVAAISWSGSSTYYADSVKGRFTISRDNAKNTVYLLMDSLKPEDTAVYYCAAGGSTRVVVTTTPVVKYWGQGTQVTVSS
notes: as for B1
As to B24, the “ELISA FLT3 (absorbance)” value with human FLT3 protein [1] was 4 absorbance. The molecule further returned an FLT3/control with human FLT3 protein [2] of 27 ratio.

B25: FLL34 (VHH)
VHH: QVQLQESGGGLVQAGGSLRLSCAASGRTFSSYALGWFRQAPGKEREFVAAISWSGGNTYYADSVKGRFTISRDDAKNTVYLQMDSLKPEDTAVYYCAAGGSTRVVVTTTPVVKYWGQGTQVTVSS
notes: as for B1
Consider B25, for which, in the assay with human FLT3 protein [1], the “ELISA FLT3 (absorbance)” value turned out to be 4 absorbance. The molecule further had an FLT3/control with human FLT3 protein [2] of 39 ratio.

B26: FLL61 (VHH)
VHH: QVQLQESGGGLVQAGGSLRLSCAASERTFSSYAMGWFRQAPGKEREFVAAISWSGGSTYYADSVKGRFTISRDNAKNTVYLQMDSLKPEDTAVYYCAAGGSTRVVVTTTPIVKYWGQGTQVTVSS
notes: as for B1
Regarding B26, in the assay with human FLT3 protein [1], the “ELISA FLT3 (absorbance)” value came out at 3.9 absorbance. In the assay with human FLT3 protein [2], the FLT3/control stood at 25 ratio.

B27: FLL4 (VHH)
VHH: QVQLQESGGGLVQAGGSLRLSCAASERTFSSYTMGWFRQAPGKEREFVAAMSWSGGSTYYADSVKGRFTISRDNAKNTVYLQMDSLKPEDTAVYYCAAGGSTRVVVTTTPVVKYWGQGTQVTVSS
notes: as for B1
Take B27: the “ELISA FLT3 (absorbance)” value with human FLT3 protein [1] is 3.7 absorbance. Moreover, the FLT3/control with human FLT3 protein [2] stood at 43 ratio.
